According to patent US20160193299A1, “MODIFIED NUCLEOSIDE, NUCLEOTIDE, AND NUCLEIC ACID COMPOSITIONS” (Moderna Therapeutics, Inc., priority 2011, published 2016):

How the values were obtained:
G-CSF [1] = assay: Example 18 time course in vivo study, serum G-CSF ELISA; details: mice IV
Procedure: (§1) Formulations, listed in Table 31, were characterized by particle size, zeta potential, and encapsulation.
LNP formulations, shown in Table 31 (above), were administered to mice (n=5) intravenously (IV) at a single modified mRNA dose of 0.5, 0.05 or 0.005 mg/kg. The mice were bled at 8 hours, 24 hours, 72 hours and 6 days after they were administered with G-CSF or EPO modified mRNA formulations to determine protein expression using ELISA.

G-CSF [2] = assay: Example 19 LNP formulations in mice, serum G-CSF ELISA; format: in vivo; details: for G-CSF Serum Concentration: mice IV (n=4); for G-CSF protein expression detectable at least out to: mice IV
Procedure: as §1
LNP formulations, shown in Table 31 (above), were administered to mice (n=4) intravenously (IV) at a single modified mRNA dose 0.05 mg/kg or 0.005 mg/kg. There was also 3 control groups of mice (n=4) that were untreated. The mice were bled at 2 hours, 8 hours, 24 hours, 48 hours and 72 hours after they were administered with G-CSF or EPO modified mRNA formulations to determine the protein expression. Protein expression of G-CSF and EPO were determined using ELISA.

B1: G-CSF: human G-CSF mRNA SEQ ID NO: 6, polyA ~160 nt, Cap1, fully modified with 5-methylcytosine and pseudouridine (nucleic acid, listed as Homo sapiens)
chain: GGGAAAUAAGAGAGAAAAGAAGAGUAAGAAGAAAUAUAAGAGCCACCAUGGCCGGUCCCGCGACCCAAAGCCCCAUGAAACUUAUGGCCCUGCAGUUGCUGCUUUGGCACUCGGCCCUCUGGACAGUCCAAGAAGCGACUCCUCUCGGACCUGCCUCAUCGUUGCCGCAGUCAUUCCUUUUGAAGUGUCUGGAGCAGGUGCGAAAGAUUCAGGGCGAUGGAGCCGCACUCCAAGAGAAGCUCUGCGCGACAUACAAACUUUGCCAUCCCGAGGAGCUCGUACUGCUCGGGCACAGCUUGGGGAUUCCCUGGGCUCCUCUCUCGUCCUGUCCGUCGCAGGCUUUGCAGUUGGCAGGGUGCCUUUCCCAGCUCCACUCCGGUUUGUUCUUGUAUCAGGGACUGCUGCAAGCCCUUGAGGGAAUCUCGCCAGAAUUGGGCCCGACGCUGGACACGUUGCAGCUCGACGUGGCGGAUUUCGCAACAACCAUCUGGCAGCAGAUGGAGGAACUGGGGAUGGCACCCGCGCUGCAGCCCACGCAGGGGGCAAUGCCGGCCUUUGCGUCCGCGUUUCAGCGCAGGGCGGGUGGAGUCCUCGUAGCGAGCCACCUUCAAUCAUUUUUGGAAGUCUCGUACCGGGUGCUGAGACAUCUUGCGCAGCCGUGAAGCGCUGCCUUCUGCGGGGCUUGCCUUCUGGCCAUGCCCUUCUUCUCUCCCUUGCACCUGUACCUCUUGGUCUUUGAAUAAAGCCUGAGUAGGAAG
modifications: polyA ~160, Cap1, 5mC/pseudouridine modified
G-CSF protein expression detectable out to (G-CSF [1]; 0.005 mg/kg and 0.05 mg/kg): 72 h
G-CSF Serum Concentration (G-CSF [1]; 0.005 mg/kg, 8 hours): 11,550.6 pg/ml
G-CSF Serum Concentration (G-CSF [1]; 0.005 mg/kg, 24 hours): 5,068.9 pg/ml
G-CSF Serum Concentration (G-CSF [1]; 0.05 mg/kg, 8 hours): 462,312.5 pg/ml
G-CSF Serum Concentration (G-CSF [1]; 0.05 mg/kg, 24 hours): 80,903.8 pg/ml
G-CSF Serum Concentration (G-CSF [1]; 0.5 mg/kg, 8 hours): >1,250,000 pg/ml
G-CSF Serum Concentration (G-CSF [1]; 0.5 mg/kg, 24 hours): 495,812.5 pg/ml
G-CSF Serum Concentration (G-CSF [1]; 0.5 mg/kg, 72 hours): 1,325.6 pg/ml
G-CSF Serum Concentration (G-CSF [2]; 0.005 mg/kg, 2 hours): 3,447.8 pg/ml
G-CSF Serum Concentration (G-CSF [2]; 0.005 mg/kg, 8 hours): 11,454.0 pg/ml
G-CSF Serum Concentration (G-CSF [2]; 0.005 mg/kg, 24 hours): 4,960.2 pg/ml
G-CSF Serum Concentration (G-CSF [2]; 0.005 mg/kg, 48 hours): 686.4 pg/mL
G-CSF Serum Concentration (G-CSF [2]; 0.05 mg/kg, 2 hours): 20,951.4 pg/ml
G-CSF Serum Concentration (G-CSF [2]; 0.05 mg/kg, 8 hours): 70,012.8 pg/ml
G-CSF Serum Concentration (G-CSF [2]; 0.05 mg/kg, 24 hours): 19,356.2 pg/ml
G-CSF Serum Concentration (G-CSF [2]; 0.05 mg/kg, 48 hours): 1,963.0 pg/ml
G-CSF Serum Concentration (G-CSF [2]; 0.05 mg/kg, 72 hours): 47.3 pg/mL
G-CSF protein expression detectable at least out to (G-CSF [2]; 0.005 mg/kg): ≥ 48 h
G-CSF protein expression detectable at least out to (G-CSF [2]; 0.05 mg/kg): ≥ 72 h
